Experiments:
HeLa Kyoto [1] = experiment: solubility change mitosis vs G1/S (difference of NP-40 vs SDS log2 ratios) (log2 ratio difference); higher = more soluble in mitosis
HeLa Kyoto [2] = experiment: solubility in G1/S (NP-40 vs SDS abundance) (log2 ratio); higher = more soluble; conditions: cell cycle stage: G1/S
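For solubility change mitosis vs G1/S (difference of NP-40 vs SDS log2 ratios) in this document: synchronized HeLa Kyoto cells (double thymidine block for G1/S, nocodazole release for mitosis), protein amounts in NP-40 versus SDS lysates quantified by mass spectrometry, three biological replicates.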
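For solubility in G1/S (NP-40 vs SDS abundance) in this document: HeLa Kyoto cells arrested at G1/S by double thymidine block, proteins quantified by TMT10plex mass spectrometry in mild NP-40 versus SDS extracts, three biological replicates.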

Sequence: MVDHLANTEINSQRIAAVESCFGASGQPLALPGRVLLGEGVLTKECRKKAKPRIFFLFNDILVYGSIVLNKRKYRSQHIIPLEEVTLELLPETLQAKNRWMIKTAKKSFVVSAASATERQEWISHIEECVRRQLRATGRPPSTEHAAPWIPDKATDICMRCTQTRFSALTRRHHCRKCGFVVCAECSRQRFLLPRLSPKPVRVCSLCYRELAAQQRQEEAEEQGAGSPGQPAHLARPICGASSGDDDDSDEDKEGSRDGDWPSSVEFYASGVAWSAFHS [PLEKHF1]
- solubility change mitosis (log2) (HeLa Kyoto [1]): 0.00206
- solubility in G1/S (log2) (HeLa Kyoto [2]): 0.0679

Sequence: MVKLIHTLADHGDDVNCCAFSFSLLATCSLDKTIRLYSLRDFTELPHSPLKFHTYAVHCCCFSPSGHILASCSTDGTTVLWNTENGQMLAVMEQPSGSPVRVCQFSPDSTCLASGAADGTVVLWNAQSYKLYRCGSVKDGSLAACAFSPNGSFFVTGSSCGDLTVWDDKMRCLHSEKAHDLGITCCDFSSQPVSDGEQGLQFFRLASCGQDCQVKIWIVSFTHILGFELKYKSTLSGHCAPVLACAFSHDGQMLVSGSVDKSVIVYDTNTENILHTLTQHTRYVTTCAFAPNTLLLATGSMDKTVNIWQFDLETLCQARRTEHQLKQFTEDWSEEDVSTWLCAQDLKDLVGIFKMNNIDGKELLNLTKESLADDLKIESLGLRSKVLRKIEELRTKVKSLSSGIPDEFICPITRELMKDPVIASDGYSYEKEAMENWISKKKRTSPMTNLVLPSAVLTPNRTLKMAINRWLETHQK [WDSUB1]
- solubility change mitosis (log2) (HeLa Kyoto [1]): -0.112
- solubility in G1/S (log2) (HeLa Kyoto [2]): -0.0154

Sequence: MVTNKMTAAFRNPSGKQVATDKVAEKLSSTLSWVKNTVSHTVSQMASQVASPSTSLHTTSSSTTLSTPALSPSSPSQLSPDDLELLAKLEEQNRLLETDSKSLRSVNGSRRNSGSSLVSSSSASSNLSHLEEDSWILWGRIVNEWEDVRKKKEKQVKELVHKGIPHHFRAIVWQLLCSAQSMPIKDQYSELLKMTSPCEKLIRRDIARTYPEHNFFKEKDSLGQEVLFNVMKAYSLVDREVGYCQGSAFIVGLLLMQMPEEEAFCVFVKLMQDYRLRELFKPSMAELGLCMYQFECMIQEHLPELFVHFQSQSFHTSMYASSWFLTIFLTTFPLPIATRIFDIFMSEGLEIVFRVGLALLQMNQAELMQLDMEGMLQHFQKVIPHQFDGVPDKLIQAAYQVKYNSKKMKKLEKEYTTIKTKEMEEQVEIKRLRTENRLLKQRIETLEKHKCSSNYNEDFVLQLEKELVQARLSEAESQCALKEMQDKVLDIEKRNNSLPDENNIARLQEELIAVKLREAEAIMGLKELRQQVKDLEEHWQRHLARTTGRWKDPPKKNAMNELQDELMTIRLREAETQAEIREIKQRMMEMETQNQINSNHLRRAEQEVISLQEKVQYLSAQNKGLLTQLSEAKRKQAEIECKNKEEVMAVRLREADSIAAVAELRQHIAELEIQKEEGKLQGQLNKSDSNQYIGELKDQIAELNHELRCLKGQRGFSGQPPFDGIHIVNHLIGDDESFHSSDEDFIDNSLQETGVGFPLHGKSGSMSLDPAVADGSESETEDSVLETRESNQVVQKERPPRRRESYSTTV [EVI5]
- solubility change mitosis (log2) (HeLa Kyoto [1]): -0.288
- solubility in G1/S (log2) (HeLa Kyoto [2]): 0.129

Sequence: MWCIVLFSLLAWVYAEPTMYGEILSPNYPQAYPSEVEKSWDIEVPEGYGIHLYFTHLDIELSENCAYDSVQIISGDTEEGRLCGQRSSNNPHSPIVEEFQVPYNKLQVIFKSDFSNEERFTGFAAYYVATDINECTDFVDVPCSHFCNNFIGGYFCSCPPEYFLHDDMKNCGVNCSGDVFTALIGEIASPNYPKPYPENSRCEYQIRLEKGFQVVVTLRREDFDVEAADSAGNCLDSLVFVAGDRQFGPYCGHGFPGPLNIETKSNALDIIFQTDLTGQKKGWKLRYHGDPMPCPKEDTPNSVWEPAKAKYVFRDVVQITCLDGFEVVEGRVGATSFYSTCQSNGKWSNSKLKCQPVDCGIPESIENGKVEDPESTLFGSVIRYTCEEPYYYMENGGGGEYHCAGNGSWVNEVLGPELPKCVPVCGVPREPFEEKQRIIGGSDADIKNFPWQVFFDNPWAGGALINEYWVLTAAHVVEGNREPTMYVGSTSVQTSRLAKSKMLTPEHVFIHPGWKLLEVPEGRTNFDNDIALVRLKDPVKMGPTVSPICLPGTSSDYNLMDGDLGLISGWGRTEKRDRAVRLKAARLPVAPLRKCKEVKVEKPTADAEAYVFTPNMICAGGEKGMDSCKGDSGGAFAVQDPNDKTKFYAAGLVSWGPQCGTYGLYTRVKNYVDWIMKTMQENSTPRED [C1S]
- solubility change mitosis (log2) (HeLa Kyoto [1]): -0.029
- solubility in G1/S (log2) (HeLa Kyoto [2]): 0.0236

Sequence: MWEKMETKTIVYDLDTSGGLMEQIQALLAPPKTDEAEKRSRKPEKEPRRSGRATNHDSCDSCKEGGDLLCCDHCPAAFHLQCCNPPLSEEMLPPGEWMCHRCTVRRKKREQKKELGHVNGLVDKSGKRTTSPSSDTDLLDRSASKTELKAIAHARILERRASRPGTPTSSASTETPTSEQNDVDEDIIDVDEEPVAAEPDYVQPQLRRPFELLIAAAMERNPTQFQLPNELTCTTALPGSSKRRRKEETTGKNVKKTQHELDHNGLVPLPVKVCFTCNRSCRVAPLIQCDYCPLLFHMDCLEPPLTAMPLGRWMCPNHIEHVVLNQKNMTLSNRCQVFDRFQDTVSQHVVKVDFLNRIHKKHPPNRRVLQSVKRRSLKVPDAIKSQYQFPPPLIAPAAIRDGELICNGIPEESQMHLLNSEHLATQAEQQEWLCSVVALQCSILKHLSAKQMPSHWDSEQTEKADIKPVIVTDSSVTTSLQTADKTPTPSHYPLSCPSGISTQNSLSCSPPHQSPALEDIGCSSCAEKSKKTPCGTANGPVNTEVKANGPHLYSSPTDSTDPRRLPGANTPLPGLSHRQGWPRPLTPPAAGGLQNHTVGIIVKTENATGPSSCPQRSLVPVPSLPPSIPSSCASIENTSTLQRKTVQSQIGPPLTDSRPLGSPPNATRVLTPPQAAGDGILATTANQRFSSPAPSSDGKVSPGTLSIGSALTVPSFPANSTAMVDLTNSLRAFMDVNGEIEINMLDEKLIKFLALQRIHQLFPSRVQPSPGSVGTHQLASGGHHIEVQRKEVQARAVFYPLLGLGGAVNMCYRTLYIGTGADMDVCLTNYGHCNYVSGKHACIFYDENTKHYELLNYSEHGTTVDNVLYSCDFSEKTPPTPPSSIVAKVQSVIRRRRHQKQDEEPSEEAAMMSSQAQGPQRRPCNCKASSSSLIGGSGAGWEGTALLHHGSYIKLGCLQFVFSITEFATKQPKGDASLLQDGVLAEKLSLKPHQGPVLRSNSVP [PHF12]
- solubility change mitosis (log2) (HeLa Kyoto [1]): 0.237
- solubility in G1/S (log2) (HeLa Kyoto [2]): -0.326

Sequence: MWGFRLLRSPPLLLLLPQLGIGNASSCSQARTMNPGGSGGARCSLSAEVRRRQCLQLSTVPGADPQRSNELLLLAAAGEGLERQDLPGDPAKEEPQPPPQHHVLYFPGDVQNYHEIMTRHPENYQWENWSLENVATILAHRFPNSYIWVIKCSRMHLHKFSCYDNFVKSNMFGAPEHNTDFGAFKHLYMLLVNAFNLSQNSLSKKSLNVWNKDSIASNCRSSPSHTTNGCQGEKVRTCEKSDESAMSFYPPSLNDASFTLIGFSKGCVVLNQLLFELKEAKKDKNIDAFIKSIRTMYWLDGGHSGGSNTWVTYPEVLKEFAQTGIIVHTHVTPYQVRDPMRSWIGKEHKKFVQILGDLGMQVTSQIHFTKEAPSIENHFRVHEVF [C2ORF69]
- solubility change mitosis (log2) (HeLa Kyoto [1]): 0.0615
- solubility in G1/S (log2) (HeLa Kyoto [2]): 0.0592

From the supplement of paper PMC5998384
